Measurements taken from the supplement of paper PMC12783771.
± gives the standard deviation of the averaged measurements.

B1: library; numbered along this chain (parent)
chain: MNIQIGELAKRTACPVVTIRFYEQEGLLPPPGRSRGNFRLYGEEHVERLQFIRHCRSLDMPLSDVRTLLSYRKRPDQDCGEVNMLLDEHIRQVESRIGALLELKHHLVELREACSGARPAQSCGILQGLSDCVCDTRGTTAHPSD

What was measured:
[1] = variants of: B1; assay: sfGFP reporter fluorescence (15 h) (µM FITC); higher = higher leak; conditions: library round: Round 0; ligand: none
How it was run: (§1)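 PCR-made linear PbrR templates (Echo-normalized to 5 nM) were expressed in BL21 Star (DE3) extract (PANOx-SP) with pPbrR-sfGFP reporter plasmid and 30 μg/mL GamS. Reactions were 1 μL, Echo-assembled, with 1 µM lead chloride, 30 µM zinc acetate or no metal, incubated 15 hr at 30 °C. Endpoint sfGFP fluorescence (485/528 nm, Synergy Neo2) was converted to µM FITC via standard curves in 50 mM sodium borate pH 8.5. Up to three biological replicates.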

[2] = variants of: B1; assay: sfGFP reporter fluorescence (15 h) (µM FITC); higher = stronger transcriptional activation; conditions: library round: Round 0
How it was run: as §1

MNIQIGELAKRTACPVVTIRFYEQEGLLPPPGRSRGNFRLLGEEHVERLQFIRHCRSLDMPLSDVRTLLSYRKRPDQDCGEVNMLLDEHIRQVESRIGALLELKHHLVELREACSGARPAQSCGILQGLSDCVCDTRGTTAHPSD [Y41L]
sfGFP reporter fluorescence [1]: 0.0597
sfGFP reporter fluorescence ([2]; ligand: 1 µM Pb): 0.0596 ± 0.0029
sfGFP reporter fluorescence ([2]; ligand: 30 µM Zn): 0.0729 ± 0.0083

MNIQIGELAKRTACPVVTIRFYEQEGLLPPPGRSRGNFRLMGEEHVERLQFIRHCRSLDMPLSDVRTLLSYRKRPDQDCGEVNMLLDEHIRQVESRIGALLELKHHLVELREACSGARPAQSCGILQGLSDCVCDTRGTTAHPSD [Y41M]
sfGFP reporter fluorescence [1]: 0.0629 ± 0.00078
sfGFP reporter fluorescence ([2]; ligand: 1 µM Pb): 0.0596 ± 0.0023
sfGFP reporter fluorescence ([2]; ligand: 30 µM Zn): 0.113 ± 0.0078

MNIQIGELAKRTACPVVTIRFYEQEGLLPPPGRSRGNFRLNGEEHVERLQFIRHCRSLDMPLSDVRTLLSYRKRPDQDCGEVNMLLDEHIRQVESRIGALLELKHHLVELREACSGARPAQSCGILQGLSDCVCDTRGTTAHPSD [Y41N]
sfGFP reporter fluorescence [1]: 0.0594 ± 0.0031
sfGFP reporter fluorescence ([2]; ligand: 1 µM Pb): 0.0601
sfGFP reporter fluorescence ([2]; ligand: 30 µM Zn): 0.0597 ± 0.0015

MNIQIGELAKRTACPVVTIRFYEQEGLLPPPGRSRGNFRLPGEEHVERLQFIRHCRSLDMPLSDVRTLLSYRKRPDQDCGEVNMLLDEHIRQVESRIGALLELKHHLVELREACSGARPAQSCGILQGLSDCVCDTRGTTAHPSD [Y41P]
sfGFP reporter fluorescence [1]: 0.0583 ± 0.001
sfGFP reporter fluorescence ([2]; ligand: 1 µM Pb): 0.0597 ± 0.001
sfGFP reporter fluorescence ([2]; ligand: 30 µM Zn): 0.0601 ± 0.0026

MNIQIGELAKRTACPVVTIRFYEQEGLLPPPGRSRGNFRLQGEEHVERLQFIRHCRSLDMPLSDVRTLLSYRKRPDQDCGEVNMLLDEHIRQVESRIGALLELKHHLVELREACSGARPAQSCGILQGLSDCVCDTRGTTAHPSD [Y41Q]
sfGFP reporter fluorescence [1]: 0.0581 ± 0.0023
sfGFP reporter fluorescence ([2]; ligand: 1 µM Pb): 0.0597
sfGFP reporter fluorescence ([2]; ligand: 30 µM Zn): 0.0574 ± 0.0054

MNIQIGELAKRTACPVVTIRFYEQEGLLPPPGRSRGNFRLRGEEHVERLQFIRHCRSLDMPLSDVRTLLSYRKRPDQDCGEVNMLLDEHIRQVESRIGALLELKHHLVELREACSGARPAQSCGILQGLSDCVCDTRGTTAHPSD [Y41R]
sfGFP reporter fluorescence [1]: 0.0618 ± 0.0013
sfGFP reporter fluorescence ([2]; ligand: 1 µM Pb): 0.0623 ± 0.001
sfGFP reporter fluorescence ([2]; ligand: 30 µM Zn): 0.0643 ± 0.0013

MNIQIGELAKRTACPVVTIRFYEQEGLLPPPGRSRGNFRLSGEEHVERLQFIRHCRSLDMPLSDVRTLLSYRKRPDQDCGEVNMLLDEHIRQVESRIGALLELKHHLVELREACSGARPAQSCGILQGLSDCVCDTRGTTAHPSD [Y41S]
sfGFP reporter fluorescence [1]: 0.0603 ± 0.00078
sfGFP reporter fluorescence ([2]; ligand: 1 µM Pb): 0.0612 ± 0.0021
sfGFP reporter fluorescence ([2]; ligand: 30 µM Zn): 0.0616 ± 0.0015
